According to the supplement of paper PMC9170038:

Test system: MS2 coat protein
Assay: apparent KD of MS2 coat protein; designed switch direction (-1 OFF switch, 1 ON switch): 1; higher = weaker reporter binding
Outline: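 The reported apparent KD is a per-design median over clusters, from curve fits of normalised cluster fluorescence. Protein titrations used SNAP-549-labelled MS2 coat protein, doubled from 0.7 or 1.5 nM to 3 µM, in Tris-HCl pH 7.5 buffer with KCl, MgCl2, BSA, DTT, tRNA and Tween-20, with no input, 200 uM small-molecule ligand, or an oligonucleotide input. The RNA switches were transcribed on Illumina chips by stalled E. coli RNA polymerase.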

[1] = input ligand: microRNA oligo, concentration not stated
[2] = Eterna round: R95, input ligand: microRNA oligo, concentration not stated
[3] = Eterna round: R95, input ligand: FMN 200 uM
[4] = Eterna round: R95, input ligand: none

| Sequence | apparent KD of MS2 coat protein (input ligand: FMN 200 uM) | apparent KD of MS2 coat protein [1] | apparent KD of MS2 coat protein (input ligand: none) | apparent KD of MS2 coat protein [2] | apparent KD of MS2 coat protein [3] | apparent KD of MS2 coat protein [4] |
| --- | --- | --- | --- | --- | --- | --- |
| CCAGCAUCACGAGGAUAUGGAGGUUCCCGAAAGACAUGAGGAUCACCCAUGUAUGUACGCCGCCUUCAGAAGGUGUAUAAGCGA [Eternabot solution 31] (Eterna round: R96, puzzle: Same State NG 2) | 65.7 nM | 38.2 nM | 58.7 nM | – | – | – |
| GUGGUCAGACAUGAGGAUCACCCAUGUGGAAUAAAUAAGGACUAGGAUAUCGAAUAUAGGAUAUACGAGAAGGAGUGGUUGGUG (Eterna round: R96, puzzle: Same State NG 3) | 81.1 nM | 53.5 nM | 67.9 nM | – | – | – |
| CGUCGCUGUCGAGAGGAUAUGCGGUGAUGGACAUGAGGAUCACCCAUGUUAGCGAUAGUAUCACGGUAGAAGGCUCUUACGACUG [Soteed Omei mod 26] (puzzle: Same State 2) | – | – | – | 26.7 nM | – | – |
| GAGUGGUUGGGAGGAUAUGCAUUGUUAUUAAAUGCAGAAGGUUUUAACAUGAGGAUCACCCAUGUAGGACUAUUCCUGUGUAUC [Parity 69 - Jieux - Same State NG 1] (Eterna round: R96, puzzle: Same State NG 1) | 13 nM | 12.1 nM | 15.8 nM | – | – | – |
| AGAUCAUGACGAGGAUAUGGUACAUGAGGAUCACCCAUGUAUGUACCAUAGCAACAGCUAGGAAACCAGAAGGCGUCGUGGUCA [jandersonlee JLSSNG2 1.18 Native F5 + F7] (Eterna round: R96, puzzle: Same State NG 2) | 13.6 nM | 15.6 nM | 26.6 nM | – | – | – |
| GAGGAACAGGCCAACAUGAGGAUCACCCAUGUCCUCGCACUUCAGGAUAUCUGGAGGAAGAAGAAAGAGAAGGGAAGGUGAAGC [AK SSNG3-V2-34.2] (Eterna round: R96, puzzle: Same State NG 3) | 202 nM | 30.1 nM | 19.3 nM | – | – | – |
| CUACAGGCCAGAGGAUAUGGGAAAGGAAGUGUACCAGAAGGUUGGCCUCCUGAGUACAUGAGGAUCACCCAUGUAGAAAGGCGA [PowerStrip SSNG 1.6] (Eterna round: R96, puzzle: Same State NG 1) | 143 nM | 41.6 nM | 79.9 nM | – | – | – |
| UGGCUCAGAGCAGGAUAUAUGCGAUCACAUGAGGAUCACCCAUGUCUCGAGCUUCGGCUCGAGGCAUAGAAGGGCUCUGAGCCA [SSNG2/4-B2] (Eterna round: R96, puzzle: Same State NG 2) | 14.4 nM | 26.8 nM | 36.4 nM | – | – | – |
| UCGGGCGUACUUGCUGACAUGAGGAUCACCCAUGUGAUUGGGCAGGAUAUGGUUCCGUUUCGGUUCCAGAAGGUCCUCGGUGCU [salish99_SSNG3_r04_315] (Eterna round: R96, puzzle: Same State NG 3) | 593 nM | 230 nM | 347 nM | – | – | – |
| UGUUGUAUUACAGGAUAUCUAUGGUUUUUAUUUAGAGAAGGGUAUUCACAUGAGGAUCACCCAUGUAUAUACGAGGAAGUUGUG [JMF's solution 58] (Eterna round: R96, puzzle: Same State NG 1) | – | 41.6 nM | – | – | – | – |
| AAAAAACAUGAGGAUCACCCAUGUCUUUUGACAUGAGGAUAUGUACAGACUUCGGUCUGUACAGAAGGCAUGUAAA [SS1 - 1028] (Eterna round: R96, puzzle: Same State 1) | – | 336 nM | – | – | – | – |
| UGUUAUUAGACAGGAUAUUGAUUGUAAAGUUUUUACAUGAGGAUCACCCAUGUUGUUCAUUCGAACAAGAAGGGUCAAGUUUUU [JR_SSNG2_Sub018] (Eterna round: R96, puzzle: Same State NG 2) | 153 nM | 35.9 nM | 137 nM | – | – | – |
| AUUAUUUAUGCAGGAUAUGAUUAACAUGAGGAUCACCCAUGUGGUGUUGUGAGUAAGGAGAGUGAUCAGAAGGGCAGUUUUUUU [JMF's solution 43] (Eterna round: R96, puzzle: Same State NG 2) | 568 nM | 231 nM | 406 nM | – | – | – |
| GUUACAUGAGGAUCACCCAUGUAUGUGUGGGAGUAAGUGUCUUAGGAUAUCUAUGAUUUAAUCUAAGAGAAGGAAGAUUGUUGU [JMF's solution 82] (Eterna round: R96, puzzle: Same State NG 3) | 114 nM | 76.8 nM | 95.3 nM | – | – | – |
| GCUAGAAUUAAAGCCAACAUGAGGAUCACCCAUGUAUGUUGGCAGGAUAUCGUUUGCUUUGCAAACGAGAAGGGCCAUACUAGC [JL SSNG3 1.08] (Eterna round: R96, puzzle: Same State NG 3) | 47.7 nM | 98.1 nM | 134 nM | – | – | – |
| AUGCAGCCACCACAGGAUAUACGUGGAUCGACAUGAGGAUCACCCAUGUAUAUCCUAAUAAUUGCGUAGAAGGGUGGUCGGCUGG [Anatxeage] (puzzle: Same State 2) | – | – | – | 362 nM | – | – |
| GGGAGAGACGGAGGAUAUGGAGGGAGAUAGAGACUAGAAGGUUGGACAUGAGAAUCGAACAUGAGGAUCACCCAUGUUGGGAGG [iteri-2] (Eterna round: R96, puzzle: Same State NG 1) | 61.5 nM | 33.7 nM | 56.7 nM | – | – | – |
| CGGCGCUGUCGAGAGGAUAUGCGGUGAUGGACAUGAGGAUCACCCAUGUUAGCGAUAGCAUCACGGUAGAAGGCUCUACGGCUGC [Soteed Omei mod 19] (puzzle: Same State 2) | – | – | – | 9.83 nM | – | – |
| UUAAUAAUGUAAGGAUAUACAUGAGGAUUUCUCGUAGAAGGUACAGGACAUGAGGAUCACCCAUGUAUCGCUCGAAAGAGCGUA [Mat - Same State NG 1 - JL mod - D25] (Eterna round: R96, puzzle: Same State NG 1) | 521 nM | 217 nM | 1130 nM | – | – | – |
| CCGCGCUGUCGAGAGGAUAUGCGGUGAUGGACAUGAGGAUCACCCAUGUUAGCGAUAGCAUUACUGUAGAAGGCUCUACAGCGGC [JL-ss2-3.10 ViennaUCT mod] (puzzle: Same State 2) | – | – | – | 18.3 nM | 12.9 nM | 21.3 nM |
| UACCAACAUAUAGAACAAGCGUGCUCGUCACAUGAGGAUCACCCAUGUCUAAGCGCUGAACCUGCAUCCUCAGCGCC [Oniste] (puzzle: Sensor for hsa-mir-208a) | – | – | – | 26.5 nM | 78.5 nM | 85.9 nM |
| UGGCUCAGACGAGGAUAUAUGUAAUAACAUGAGGAUCACCCAUGUGUCGAGCUUCGGCUCGACACAUAGAAGGCGUCUGAGCCU [SSNG2/2-A3] (Eterna round: R96, puzzle: Same State NG 2) | 12.7 nM | 20.2 nM | 33.3 nM | – | – | – |
| AGUCAAGACAUGAGGAUCACCCAUGUUGGGAACAUGGAGGACGAGGAUAUGUGUCGAUAUGUGACGUAGAAGGCGUCAGACAAA [Eternabot solution 33] (Eterna round: R96, puzzle: Same State NG 3) | 189 nM | 224 nM | 419 nM | – | – | – |
| GGUCCAGCCUGAGCUGGACAAAAGCAUGUACAUGAGGAUCACCCAUGUCAUGUACAAGCUUUUUGCUCGUCAUAAUU [Mat - hsa-mir-208a - 100] (puzzle: Sensor for hsa-mir-208a) | – | – | – | 16 nM | 495 nM | 489 nM |
